Values joined by “and” are separate entries in the source; they are usually repeats but may differ in a detail not shown here. Equal entries are not always repeated.
Molecular target: the molecule itself
Assay: cryo-EM structure

B1: mouse bestrophin 1 with a C-terminal tandem tag of BRIL and 3X Flag (mBEST1-BRIL-3xFLAG) (natural protein, UniProt O88870 1-551, looked up)
chain: MTITYTNKVANARLGSFSSLLLCWRGSIYKLLYGEFLVFIFLYYSIRGLYRMVLSSDQQLLFEKLALYCDSYIQLIPISFVLGFYVTLVVSRWWSQYENLPWPDRLMIQVSSFVEGKDEEGRLLRRTLIRYAILGQVLILRSISTSVYKRFPTLHHLVLAGFMTHGEHKQLQKLGLPHNTFWVPWVWFANLSMKAYLGGRIRDTVLLQSLMNEVCTLRTQCGQLYAYDWISIPLVYTQVVTVAVYSFFLACLIGRQFLNPNKDYPGHEMDLVVPVFTILQFLFYMGWLKVAEQLINPFGEDDDDFETNWIIDRNLQVSLLSVDGMHQNLPPMERDMYWNEAAPQPPYTAASARSRRHSFMGSTFNISLKKEDLELWSKEEADTDKKESGYSSTIGCFLGLQPKNYHLPLKDLKTKLLCSKNPLLEGQCKDANQKNQKDVWKFKGLDFLKCVPRFKRRGSHCGPQAPSSHPTEQSAPSSSDTGDGPSTDYQEICHMKKKTVEFNLNIPESPTEHLQQRRLDQMSTNIQALMKEHAESYPYRDEAGTKPVLYE
stoichiometry N: 5 and 10
